How the values were obtained:
[1] = Differential scanning fluorimetry (protein thermal shift; TM1/TM2); format: physicochemical; conditions: Table 11; melting temperature of the Fab domain
Protocol: A protein thermal shift assay was carried out by mixing the protein to be assayed with an environmentally sensitive dye (SYPRO Orange, Life Technologies Cat #S-6650) in a phosphate buffered solution (PBS), and monitoring the fluorescence of the mixture in real time as it underwent controlled thermal denaturation. Protein solutions between 0.2-2 mg/mL were mixed at a 1-1 volumetric ratio with a 1-500 PBS-diluted solution of SYPRO Orange (SYPRO Orange stock dye is 5000× in DMSO). 10 μL aliquots of the protein-dye mixture were dispensed in quadruplicate in a 384-well microplate (Bio-Rad Cat #MSP-3852), and the plate was sealed with an optically clear sealing film (Bio-Rad Cat #MSB-1001) and placed in a 384-well plate real-time thermocycler (Bio-Rad CFX384 Real Time System). The protein-dye mixture was heated from […], at increments of 0.1° C. per cycle (˜1.5° C. per minute), allowing 3 seconds of equilibration at each temperature before taking a fluorescence measurement. At the end of the experiment, the transition melting temperatures (TM1 and TM2) were determined using the Bio-Rad CFX manager software. TM1 represents the melting temperature of the Fc domain. TM2 represents the melting temperature of the Fab domain.
For the thermal stability of an antibody, the first melting peak (Tm1) coincides with the unfolding of the CH2 domain (FC stability), while the second melting peak (Tm2) occurs upon unfolding of the Fab domain.

human ROR1-Fz = biological target: T1, human ROR1-Fz (Homo sapiens, UniProt Q01973); test: Biacore off-rate and kinetic analysis, ROR1-Fz; format: binding; conditions: Table 11; SP34 light chain
T1 construct: Frizzled (Fz, residues 165-305); His6 (C); purchased Acro Biosystems; host or cells: HEK293
T1 sequence (Q01973 165-305): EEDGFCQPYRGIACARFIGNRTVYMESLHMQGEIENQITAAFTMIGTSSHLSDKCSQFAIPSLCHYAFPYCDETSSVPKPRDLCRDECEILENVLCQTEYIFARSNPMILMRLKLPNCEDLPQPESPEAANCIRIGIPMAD
Protocol: Anti-Fc polyclonal antibodies were immobilized onto a CMS chip (GE Life Sciences) using amine coupling chemistry (from Amine Coupling Kit, GE Life Sciences). The immobilization steps were carried out at a flow rate of 25 μL/min in 1×HBS-EP+buffer (GE Life Sciences; 10× Stock diluted before use). The sensor surfaces were activated for 7 min with a mixture of NHS (0.05 M) and EDC (0.2 M). The Anti-Fc antibodies were injected over all 4 flow cells at a concentration of 25 ug/ml in 10 mM sodium acetate, pH 4.5, for 7 min. Ethanolamine (1 M, pH 8.5) was injected for 7 min to block any remaining activated groups. An average of 12,000 response units (RU) of capture antibody was immobilized on each flow cell.
Off-rate and kinetic binding experiments were performed at 25° C. using 1×HBS-EP+buffer. Test and control antibodies were injected over the anti-Fc surface at concentrations of 5-10 μg/mL for 12 seconds at a flow rate of 10 μL/min on flow cells 2, 3 and 4, followed by a buffer wash for 30 seconds at the same flow rate. Kinetic characterization of antibody samples was carried out with a range of antigen concentrations from 1-100 nM and 1 injection of 0 nM antigen (for example, 100, 50, 25, 6.25, 1.56 and 0 nM). After capturing ligand (antibody) on the anti-Fc surface, the analyte (hROR1, Fz or Kr domains, Acro Biosystems, Delaware) was bound for 180 seconds, followed by a 600 second dissociation phase at a flow rate of 50 μL/min. Between each ligand capture and analyte binding cycle, regeneration was carried out using 2 injections of 10 mM Glycine pH 2.0 for 30 seconds at 30 μL/min, followed by a 30 second buffer wash step.
The data was fit with the Biacore T200 Evaluation software, using a 1-1 Langmuir binding model. KD (affinity, nM) was determined as a ratio of the kinetic rate constants calculated from the fits of the association and dissociation phases.
For anti-CD3-LC-containing IgGs that had detectable ROR1-binding in ELISA (1944-A07 and 1987-C05 variants), those antibodies were further tested for binding by surface plasmon resonance (SPR). Binding kinetics were assessed to the ROR1-frizzled domain (hROR1-Fz) or the ROR1-extracellular domain (hROR1) for 1944-A07 and 1987-C05 variants, respectively. Briefly, anti-ROR1 antibodies were captured via anti-human Fc polyclonal antibodies immobilized to a CM5 chip, and ROR1 recombinant proteins were flowed across the surface to assess binding kinetics. hROR1 or hROR1-Fz domain (Acro Biosystems, Delaware) binding was tested at 100, 50, 25, 6.25, 1.5625 nM. The data was fit with the Biacore™ T200 Evaluation software, using a 1-1 Langmuir binding model. KD (affinity, nM) was determined as a ratio of the kinetic rate constants calculated from the fits of the association and dissociation phases.

Biacore human ROR1-Fz ka (human ROR1-Fz) [M⁻¹ s⁻¹] | Biacore human ROR1-Fz kd (human ROR1-Fz) [s⁻¹] | Molecule | TM2 (° C.) [1] [°C]
191000 | 0.000792 | SRP2196-A11 (antibody, V domains shown) VH: EVQLVESGGGLVQPGGSLRLSCAASGFNITGYYIHWVRQAPGKGLEWVGQISPNSGTTYDADSVKGRFTISADTSKNTAYLQMNSLRAEDTAVYYCARDSRRYVRGWDYWGQGTLVTVSS VL: QAVVTQESALTTSPGETVTLTCRSSTGAVTTSNYANWVQEKPDHLFTGLIGGTNKRAPGVPARFSGSLIGDKAALTITGAQTEDEAIYFCALWYSNLWVFGGGTKLTVL | 73
125000 | 0.000457 | SRP2196-C01 (antibody, V domains shown) VH: EVQLVESGGGLVQPGGSLRLSCAASGFNIIGYYIHWVRQAPGKGLEWVGSITPLSGATSKADSVKGRFTISADTSKNTAYLQMNSLRAEDTAVYYCARDSRRYIRSWDYWGQGTLVTVSS VL: QAVVTQESALTTSPGETVTLTCRSSTGAVTTSNYANWVQEKPDHLFTGLIGGTNKRAPGVPARFSGSLIGDKAALTITGAQTEDEAIYFCALWYSNLWVFGGGTKLTVL | 70
142000 | 0.000423 | SRP2196-B06 (antibody, V domains shown) VH: EVQLVESGGGLVQPGGSLRLSCAASGFNITGYYIHWVRQAPGKGLEWVGQISPNSGSTYSADSVKGRFTISADTSKNTAYLQMNSLRAEDTAVYYCARDSRRYVLSWDYWGQGTLVTVSS VL: QAVVTQESALTTSPGETVTLTCRSSTGAVTTSNYANWVQEKPDHLFTGLIGGTNKRAPGVPARFSGSLIGDKAALTITGAQTEDEAIYFCALWYSNLWVFGGGTKLTVL | 70
163000 | 0.000227 | SRP2196-B02 (antibody, V domains shown) VH: EVQLVESGGGLVQPGGSLRLSCAASGFNITQYYIHWVRQAPGKGLEWVGYISPNSGQTYDADSVKGRFTISADTSKNTAYLQMNSLRAEDTAVYYCARDSRRYVRSWDYWGQGTLVTVSS VL: QAVVTQESALTTSPGETVTLTCRSSTGAVTTSNYANWVQEKPDHLFTGLIGGTNKRAPGVPARFSGSLIGDKAALTITGAQTEDEAIYFCALWYSNLWVFGGGTKLTVL | 69
156000 | 0.000488 | SRP2196-B08 (antibody, V domains shown) VH: EVQLVESGGGLVQPGGSLRLSCAASGFNITGYYIHWVRQAPGKGLEWVGQISPNSGYTYLADSVKGRFTISADTSKNTAYLQMNSLRAEDTAVYYCARDSRRYVRGWDYWGQGTLVTVSS VL: QAVVTQESALTTSPGETVTLTCRSSTGAVTTSNYANWVQEKPDHLFTGLIGGTNKRAPGVPARFSGSLIGDKAALTITGAQTEDEAIYFCALWYSNLWVFGGGTKLTVL | 75
127000 | 0.000352 | SRP2196-B04 (antibody, V domains shown) VH: EVQLVESGGGLVQPGGSLRLSCAASGFNITEYYIHWVRQAPGKGLEWVGYISPNSGATYQADSVKGRFTISADTSKNTAYLQMNSLRAEDTAVYYCARDSRRYVRGWDYWGQGTLVTVSS VL: QAVVTQESALTTSPGETVTLTCRSSTGAVTTSNYANWVQEKPDHLFTGLIGGTNKRAPGVPARFSGSLIGDKAALTITGAQTEDEAIYFCALWYSNLWVFGGGTKLTVL | 72
128000 | 0.000334 | SRP2196-B10 (antibody, V domains shown) VH: EVQLVESGGGLVQPGGSLRLSCAASGFNITGYYIHWVRQAPGKGLEWVGSITPLSGATSKADSVKGRFTISADTSKNTAYLQMNSLRAEDTAVYYCARDSRRYIRSWDYWGQGTLVTVSS VL: QAVVTQESALTTSPGETVTLTCRSSTGAVTTSNYANWVQEKPDHLFTGLIGGTNKRAPGVPARFSGSLIGDKAALTITGAQTEDEAIYFCALWYSNLWVFGGGTKLTVL | 70

From US12144869B2, “Anti-ROR1 antibody conjugates, compositions comprising anti ROR1 antibody conjugates, and methods of making and using anti-ROR1 antibody conjugates” (Sutro Biopharma, Inc., priority 2022, dated 2024)
